{"source": "patent US20070248617A1", "about": "(published 2007)", "binders": {"B1": {"name": "human RANKL protein (ligand, UniProt O14788 140-317, looked up)", "chain": "IRAEKAMVDGSWLDLAKRSKLEAQPFAHLTINATDIPSGSHKVSLSSWYHDRGWAKISNMTFSNGKLIVNQDGFYYLYANICFRHHETSGDLATEYLQLMVYVTKTSIKIPSSHTLMKGGSTKYWSGNSEFHFYSINVGGFFKLRSGEEISIEVSNPSLLDPDQDATYFGAFKVRDID", "notes": "also called hRANKL"}}, "biological_target": "T1, recombinant human RANK-hFc fusion protein (human, UniProt Q9Y6Q6 30-212, limits assumed)", "T1 construct": "also called hRANK; not shown: human Fc (hFc)", "T1 sequence (looked up)": "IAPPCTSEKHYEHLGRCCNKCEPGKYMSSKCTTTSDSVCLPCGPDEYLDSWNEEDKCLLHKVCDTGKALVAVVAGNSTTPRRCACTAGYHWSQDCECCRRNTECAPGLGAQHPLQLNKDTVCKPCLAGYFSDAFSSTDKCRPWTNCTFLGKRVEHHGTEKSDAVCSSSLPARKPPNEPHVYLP", "test": "ELISA, human RANKL coated at 10 µg/ml, serial dilutions of human RANK-hFc, anti-hFc-HRP detection", "experimental": "To test whether the antibodies generated in mice have neutralizing activity, in vitro binding assays for both mouse and human RANKL and their cognate receptors mouse RANK and human RANK were established. ELISA plates were therefore coated with 10 μg/ml of either mouse or human RANKL protein and incubated with serial dilutions of a recombinant mouse RANK-hFc fusion protein or a recombinant human RANK-hFc fusion protein, respectively. Bound protein was detected with a horse raddish peroxidase conjugated anti-hFc antibody. […] Sera of mice immunized with mRANKL(155-174) coupled to Qβcapsid were then tested for their ability to inhibit the binding of mouse and human RANKL protein to their respective receptors. ELISA plates were therefore coated with either mouse or human RANKL protein at a concentration of 10 μg/ml, and co-incubated with serial dilutions of a pool of mouse sera from day 35 and 0.35 nM mouse or human RANK-hFc fusion protein, respectively. Binding of receptor to immobilized RANKL protein was detected with horse raddish peroxidase conjugated anti-hFc antibody.", "data": [{"binder": "B1", "values": [{"measurement": "binding result", "result": "binds"}]}]}
